The record followed here is publication PMC10506094.

In data set [1] the target is Loa22 of L. kirschneri sv. Grippotyphosa str. RM52, endogenous (Leptospira kirschneri sv. Grippotyphosa str. RM52 (endogenous in cultivated cells)). The experiment in a line: SDS-PAGE and immunoblot of whole cell lysates; Leptospira cells in SDS-PAGE buffer (4% SDS, 2% β-ME), sonicated and heated (10 min, 99 °C); blot screened with anti-Loa22_(27-197) antiserum; oligomer read from the size of the bands. In general terms: In western blotting, separated proteins are transferred to a membrane and probed.

Data set [2] is described as follows: SEC; TSKgel G4000SWXL column, PBS as mobile phase, 1.0 mL/min; 50 µg recombinant protein injected (25 µL); MW from a standard curve of globular proteins; fractions checked by SDS-PAGE and immunoblot with anti-Loa22_(27-197) antiserum. For orientation: In gel filtration, larger molecules generally elute earlier.
Data set [3] has as its target Loa22 of L. noguchii sv. Autumnalis str. Bonito, endogenous (Leptospira noguchii sv. Autumnalis str. Bonito (endogenous in cultivated cells)). The data set is described as follows: SDS-PAGE and immunoblot of whole cell lysates; Leptospira cells in SDS-PAGE buffer (4% SDS, 2% β-ME), sonicated and heated (10 min, 99 °C); blot screened with anti-Loa22_(27-197) antiserum; oligomer read from the size of the bands.

Data set [4] deals with Loa22 of L. borgpetersenii sv. Ballum str. M2, endogenous (Leptospira borgpetersenii sv. Ballum str. M2 (endogenous in cultivated cells)). The data set is described as above.
The target in data set [5] is Loa22 of L. interrogans sv. Pomona str. LC82-25, endogenous (Leptospira interrogans sv. Pomona str. LC82-25 (endogenous in cultivated cells)). Described as above.
In data set [6] the target is Loa22 of L. interrogans sv. Canicola str. Kito, endogenous (Leptospira interrogans sv. Canicola str. Kito (endogenous in cultivated cells)). The data set is described as above.
The target in data set [7] is Loa22 of L. interrogans sv. Copenhageni str. Fiocruz L1-130, endogenous (Leptospira interrogans sv. Copenhageni str. Fiocruz L1-130 (endogenous in cultivated cells)). Described as above.
Data set [8] deals with recombinant Loa22_(27-197) (Leptospira OmpA-like 22 kDa protein) of L. interrogans sv. Copenhageni str. Fiocruz L1-130 (Leptospira interrogans sv. Copenhageni str. Fiocruz L1-130). The experiment in a line: SEC; TSKgel G4000SWXL column, PBS as mobile phase, 1.0 mL/min; 50 µg recombinant protein injected (25 µL); MW from a standard curve of globular proteins; fractions checked by SDS-PAGE and immunoblot with anti-Loa22_(27-197) antiserum.

A word on the stoichiometry N: it is a count of units in the complex or per binding partner.

In data set [1], “Loa22 of L. kirschneri sv. Grippotyphosa str. RM52, endogenous (natural protein)” came in with a stoichiometry N of 3. For the substance “recombinant Loa22_(27-197) (Leptospira OmpA-like 22 kDa protein) of L. interrogans sv. Copenhageni str. Fiocruz L1-130”, the “percent of the protein as monomer (area under the SEC peaks)” value in data set [2] is recorded as “a majority of the recombinant protein exists as a monomer (89% of the total)”. “Loa22 of L. noguchii sv. Autumnalis str. Bonito, endogenous (natural protein)” came in with a stoichiometry N in data set [3] of 3. For “Loa22 of L. borgpetersenii sv. Ballum str. M2, endogenous (natural protein)”, the stoichiometry N in data set [4] was determined as 3. The substance “Loa22 of L. interrogans sv. Pomona str. LC82-25, endogenous (natural protein)” displayed a stoichiometry N in data set [5] of 3. The substance “Loa22 of L. interrogans sv. Canicola str. Kito, endogenous (natural protein)” displayed a stoichiometry N in data set [6] of 3. Turning to “Loa22 of L. interrogans sv. Copenhageni str. Fiocruz L1-130, endogenous (natural protein)”, the stoichiometry N in data set [7] was 3. Consider “recombinant Loa22_(27-197) (Leptospira OmpA-like 22 kDa protein) of L. interrogans sv. Copenhageni str. Fiocruz L1-130 (domain or fragment)”, for which the stoichiometry N in data set [8] came out at 3.
